The source of these data is the supplement of paper PMC9732359.

The nature of this data set: protein stability index of a GFP-peptide fusion (yeast GPS) (PSI 1-4); higher = more stable; sorted into four equal gates, so the index is relative within each strain. The gist of the method: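 For each peptide, the protein stability index sums the read frequency in every gate after multiplying it by the gate number. Read frequencies came from plasmids that were PCR-amplified from each gate and Illumina-sequenced, with reads assigned to strains by barcodes. The gates were four equal bins of GFP/Cherry fluorescence ratio applied to mid-log yeast in leucine-free medium carrying a pooled library of tiled 17-residue yeast protein peptides fused downstream of GFP on a Cherry-expressing plasmid.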

± gives the uncertainty stated by the source.

With IGVLNNSSESDEEESND [RPN13], the protein stability index by setting is: (doa10∆) 3.52 ± 0.2; (pdr5∆) 2.4 ± 0.25; (ubr1∆) 3.37 ± 0.095.

For IHGVLKNVDREVVSEAI [FAS2], the protein stability index by setting is: (doa10∆) 3.19 ± 0.1; (pdr5∆) 3.4 ± 0.3; (san1∆) 3.3 ± 0.14.

With IIMQADLALKMGVPIYG [FAS2], the protein stability index is, setting by setting: (doa10∆) 1.63 ± 0.12; (pdr5∆) 2.04 ± 0.068; (san1∆) 1.79 ± 0.069; (ubr1∆) 2.11 ± 0.044.

As for IINKLIHIQSKENYPWE [POP3], the protein stability index runs as follows: (doa10∆) 2.65 ± 0.067; (pdr5∆) 2.44 ± 0.047; (san1∆) 1.81 ± 0.068; (ubr1∆) 2.41 ± 0.045.

Take IIPSRMGEAQTGANFDD [REC8]: the protein stability index was determined as 1.93 ± 0.089 (doa10∆), 2.16 ± 0.12 (pdr5∆), 3.04 ± 0.25 (san1∆) and 2.74 ± 0.1 (ubr1∆).

On to IKEFVDDLKKDHIAIDW [DSN1], for which the protein stability index by setting is: (doa10∆) 2.56 ± 0.08; (pdr5∆) 2.96 ± 0.075; (san1∆) 2.73 ± 0.076; (ubr1∆) 2.75 ± 0.059.

In the case of IKENFFERIMILDPQVT [YJL039C/NUP192], the protein stability index runs as follows: (doa10∆) 1.3 ± 0.062; (pdr5∆) 1.33 ± 0.054; (san1∆) 1.29 ± 0.12; (ubr1∆) 1.14 ± 0.05.

For the sequence IKIVSDKKVLVKVQPEG [RPT6], the protein stability index was 2.75 ± 0.1 (doa10∆), 2.83 ± 0.09 (pdr5∆), 2.85 ± 0.12 (san1∆) and 2.74 ± 0.07 (ubr1∆).

Take IKKIVADLKKGKDLSPA [QCR2]: the protein stability index by setting is: (doa10∆) 3.5 ± 0.24; (pdr5∆) 3.15 ± 0.2; (san1∆) 3.11 ± 0.26.

Take IKTFYWLEQFLSCVKND [NUT1]: the protein stability index runs as follows: (doa10∆) 1.31 ± 0.052; (pdr5∆) 1.26 ± 0.038; (san1∆) 1.18 ± 0.061; (ubr1∆) 1.13 ± 0.035.

As for IKYEFNGIPLKSKERSS [YMR129W/POM152], the protein stability index reads like this: (doa10∆) 2.39 ± 0.11; (pdr5∆) 1.24 ± 0.057; (san1∆) 1.52 ± 0.26; (ubr1∆) 2.98 ± 0.16.

Consider ILAAAHRDAYSGGSVNL [PRE2], for which the protein stability index runs as follows: (doa10∆) 2.86 ± 0.078; (pdr5∆) 3.2 ± 0.092; (san1∆) 2.79 ± 0.062; (ubr1∆) 2.89 ± 0.045.

In the case of ILDSLPSVIHSSVEMLL [YDL116W/NUP84], the protein stability index runs as follows: (doa10∆) 1.97 ± 0.055; (pdr5∆) 1.44 ± 0.056; (san1∆) 1.39 ± 0.084; (ubr1∆) 1.44 ± 0.041.

ILEEGSSGMGAFGGSGG [RPN10]: the protein stability index was found to be 3.36 ± 0.13 (doa10∆), 3 ± 0.16 (pdr5∆), 3.04 ± 0.15 (san1∆) and 3.28 ± 0.081 (ubr1∆).

For ILLYGPPGTGKTLCARA [RPT1], the protein stability index was 1.26 ± 0.1 (doa10∆), 1.23 ± 0.18 (pdr5∆), 1.36 ± 0.19 (san1∆) and 1.28 ± 0.12 (ubr1∆).

The sequence ILNEVFTNPSIVKVFHG [RRP6] returned a protein stability index (doa10∆) of 1.24 ± 0.083, a protein stability index (pdr5∆) of 1.42 ± 0.075, a protein stability index (san1∆) of 1.2 ± 0.18 and a protein stability index (ubr1∆) of 1.29 ± 0.05.

As for ILNFLNQEDLFELVHHF [YML103C/NUP188], the protein stability index reads like this: (doa10∆) 2.56 ± 0.14; (pdr5∆) 2.8 ± 0.083; (san1∆) 1.88 ± 0.22; (ubr1∆) 2.16 ± 0.072.

Consider ILNSYGVLKPDITFFGE [SIR2], for which the protein stability index was 3.27 ± 0.069 (doa10∆), 3.13 ± 0.072 (pdr5∆), 3.21 ± 0.049 (san1∆) and 3.31 ± 0.062 (ubr1∆).

ILQILDQDELVQPPLDK [SWP82]: the protein stability index worked out at 2.58 ± 0.068 (doa10∆), 2.68 ± 0.11 (pdr5∆), 2.62 ± 0.074 (san1∆) and 2.48 ± 0.11 (ubr1∆).

Take ILRNGIDYLQRNDKTLE [POP1]: the protein stability index runs as follows: (doa10∆) 3.19 ± 0.058; (pdr5∆) 3.01 ± 0.056; (san1∆) 2.95 ± 0.054; (ubr1∆) 2.88 ± 0.051.

Consider ILSLIEEAAGTKMFEDR [SMC2], for which the protein stability index is 3.27 ± 0.11 (doa10∆), 3.19 ± 0.09 (pdr5∆), 3.19 ± 0.084 (san1∆) and 3.24 ± 0.066 (ubr1∆).

On to IMDNFLERTAIELKTDW [RPN1], for which the protein stability index is, setting by setting: (doa10∆) 3 ± 0.2; (pdr5∆) 2.99 ± 0.18; (san1∆) 3.07 ± 0.12; (ubr1∆) 2.56 ± 0.15.

For IMYQQMLKYRRLFIGDQ [SNF2], the protein stability index is, setting by setting: (doa10∆) 1.45 ± 0.052; (pdr5∆) 1.22 ± 0.04; (san1∆) 1.3 ± 0.12; (ubr1∆) 1.42 ± 0.03.

As to INDKRANLMLVMLRLLL [SRB4], the protein stability index runs as follows: (doa10∆) 1.6 ± 0.039; (pdr5∆) 1.61 ± 0.047; (san1∆) 1.97 ± 0.067; (ubr1∆) 1.94 ± 0.04.

Consider INGWKFESLPLKSAENS [SWP82], for which the protein stability index runs as follows: (doa10∆) 2.92 ± 0.067; (pdr5∆) 3.25 ± 0.053; (san1∆) 2.9 ± 0.055; (ubr1∆) 3.03 ± 0.058.

Consider INKNSKIALREYINNCK [POP4], for which the protein stability index is 2.04 ± 0.23 (doa10∆), 2.17 ± 0.098 (pdr5∆), 2.42 ± 0.11 (san1∆) and 1.73 ± 0.14 (ubr1∆).
